Measured values: publication PMC7588069

Target: GST fusion with the receptor interaction domains (RID) of NCoRδ (region equivalent to amino acids 1817–2453 of NCoRω)
Test: pull-down; GST fusion protein (~50 ng) immobilised on ~10 μl glutathione-agarose; 35S-radiolabeled in vitro translated nuclear receptor (2–5 μl TnT product) in 120 μl HEMG buffer (4 mM HEPES pH 7.8, 0.2 mM EDTA, 5 mM MgCl2, 10% glycerol, 100 mM KCl, 0.1% Nonidet P-40, 1.5 mM DTT) with 10 mg/ml BSA; 3 hr at 4°C; eluted with 10 mM glutathione, SDS-PAGE, PhosphorImager

relative binding to NCoRδ versus NCoRω (ratio (NCoRδ versus NCoRω)) | Molecule
0.42 | Thyroid Hormone Receptor α (from UniProt P10827-2 1-410)
0.88 | Peroxisome Proliferator Activated Receptor γ (from UniProt P37231 1-505)

The next lines start with the molecule.

Molecule | relative binding to NCoRδ versus NCoRω (ratio (NCoRδ versus NCoRω))
Peroxisome Proliferator Activated Receptor α (receptor, 35S-radiolabeled) MVDTESPLCPLSPLEAGDLESPLSEEFLQEMGNIQEISQSIGEDSSGSFGFTEYQYLGSCPGSDGSVITDTLSPASSPSSVTYPVVPGSVDESPSGALNIECRICGDKASGYHYGVHACEGCKGFFRRTIRLKLVYDKCDRSCKIQKKNRNKCQYCRFHKCLSVGMSHNAIRFGRMPRSEKAKLKAEILTCEHDIEDSETADLKSLAKRIYEAYLKNFNMNKVKARVILSGKASNNPPFVIHDMETLCMAEKTLVAKLVANGIQNKEAEVRIFHCCQCTSVETVTELTEFAKAIPGFANLDLNDQVTLLKYGVYEAIFAMLSSVMNKDGMLVAYGNGFITREFLKSLRKPFCDIMEPKFDFAMKFNALELDDSDISLFVAAIICCGDRPGLLNVGHIEKMQEGIVHVLRLHLQSNHPDDIFLFPKLLQKMADLRQLVTEHAQLVQIIKKTESDAALHPLLQEIYRDMY | 0.79
Farnesoid X Receptor (receptor, 35S-radiolabeled) MVMQFQGLENPIQISPHCSCTPSGFFMEMMSMKPAKGVLTEQVAGPLGQNLEVEPYSQYSNVQFPQVQPQISSSSYYSNLGFYPQQPEEWYSPGIYELRRMPAETLYQGETEVAEMPVTKKPRMGASAGRIKGDELCVVCGDRASGYHYNALTCEGCKGFFRRSITKNAVYKCKNGGNCVMDMYMRRKCQECRLRKCKEMGMLAECMYTGLLTEIQCKSKRLRKNVKQHADQTVNEDSEGRDLRQVTSTTKSCREKTELTPDQQTLLHFIMDSYNKQRMPQEITNKILKEEFSAEENFLILTEMATNHVQVLVEFTKKLPGFQTLDHEDQIALLKGSAVEAMFLRSAEIFNKKLPSGHSDLLEERIRNSGISDEYITPMFSFYKSIGELKMTQEEYALLTAIVILSPDRQYIKDREAVEKLQEPLLDVLQKLCKIHQPENPQHFACLLGRLTELRTFNHHHAEMLMSWRVNDHKFTPLLCEIWDVQ | 0.35
Liver X Receptor α (receptor, 35S-radiolabeled) MSLWLGAPVPDIPPDSAVELWKPGAQDASSQAQGGSSCILREEARMPHSAGGTAGVGLEAAEPTALLTRAEPPSEPTEIRPQKRKKGPAPKMLGNELCSVCGDKASGFHYNVLSCEGCKGFFRRSVIKGAHYICHSGGHCPMDTYMRRKCQECRLRKCRQAGMREECVLSEEQIRLKKLKRQEEEQAHATSLPPRASSPPQILPQLSPEQLGMIEKLVAAQQQCNRRSFSDRLRVTPWPMAPDPHSREARQQRFAHFTELAIVSVQEIVDFAKQLPGFLQLSREDQIALLKTSAIEVMLLETSRRYNPGSESITFLKDFSYNREDFAKAGLQVEFINPIFEFSRAMNELQLNDAEFALLIAISIFSADRPNVQDQLQVERLQHTYVEALHAYVSIHHPHDRLMFPRMLMKLVSLRTLSSVHSEQVFALRLQDKKLPPLLSEIWDVHE | 0.51
